This is an account of results in paper PMC4660199.

Where no end group is shown, it is not given here.

B1: A3CT K457A/R458A (domain or fragment)
chain: DENASKIISAGRAKRSIAQPDDAGERFRQLKEQEKRSKKNKAVAKDTVELVEESQSESEEGSDDEEEEAREGALASSTTSKPLPEVGQRRSKRSAAKRTV
B2: A3CT K459A/R460A (domain or fragment)
chain: DENASKIISAGRAKRSIAQPDDAGERFRQLKEQEKRSKKNKAVAKDTVELVEESQSESEEGSDDEEEEAREGALASSTTSKPLPEVGQRRSKRSKRAATV

In the assay the target is full-length cpSRP43 (UniProt O22265). Nature of the assay: ITC; VP-ITC, 20 °C, 20 mM Hepes (pH 7.5), 150 mM NaCl, 5 mM MgCl2, 0.25 mM TCEP; 0.01–0.1 mM in the cell, 0.1–1.0 mM in the syringe; duplicate or triplicate. On the technique in general: ITC needs no label: the signal is the heat of the interaction.
By Kd is commonly meant the free concentration of one partner at which half of the binding sites on the other are occupied at equilibrium, for simple one-to-one binding. The low end stands for tighter binding, the high end for weaker binding. Turning to B1, the equilibrium dissociation constant (Kd) was found to be 44 µM.

B2 came in with a Kd of 20 µM.

On to GALASSTTSKPLPEVGQRRSKRSKRKRT (also: 15N,13C labelled where it is the observed NMR partner) [A3CT IV peptide], for which the Kd amounted to 15 µM.
